From article PMC3546842, “Using BAC transgenesis in zebrafish to identify regulatory sequences of the amyloid precursor protein gene in humans” come the findings set out here.

This series concerns the target T1, E4BP4-DBD (NFIL3 DNA-binding domain) (zebrafish, UniProt Q68EL6 18-164).
T1 sequence: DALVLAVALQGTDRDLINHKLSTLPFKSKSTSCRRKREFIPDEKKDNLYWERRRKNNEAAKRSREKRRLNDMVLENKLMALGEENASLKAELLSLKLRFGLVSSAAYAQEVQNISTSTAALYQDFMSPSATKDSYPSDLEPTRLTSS
Put plainly: EMSA; not given; EMSA performed as in an earlier cited paper (ref 25). As to conditions: protein: recombinant; tags: N-terminal His6; additional pET-30a(+) vector residues; chain copies: 2.

B1: probe a (dsDNA)
DNA 1: AATAAATGTTACATAATCCAAAGTC
DNA 2: GACTTTGGATTATGTAACATTTATT
Turning to B1, the binding result is recorded as “binds”.

B2: probe d (dsDNA)
DNA 1: ATTGGTTCATTATGTAACTTTCCCAT
DNA 2: ATGGGAAAGTTACATAATGAACCAAT
Consider B2, for which the binding result is listed as “binds”.

B3: probe b (dsDNA)
DNA 1: GTAAGCTTTTATGTAAGTATTTTG
DNA 2: CAAAATACTTACATAAAAGCTTAC
As to B3, the binding result is “binds”.

B4: probe c (dsDNA)
DNA 1: ATTAAATTTTATGTAAAAATATGT
DNA 2: ACATATTTTTACATAAAATTTAAT
As for B4, the binding result is given as “binds”.

B5: probe e (E4BP4 site E11) (dsDNA)
DNA 1: TGGTCAGTATTGTTATTACATAAGACATCAGCAAT
DNA 2: ATTGCTGATGTCTTATGTAATAACAATACTGACCA
In the case of B5, the binding result is reported as “binds”.
